According to PMC3433253 (Journal of molecular biology, 2012):
Residue numbers refer to the chain shown, from its start.

T1: CC2D1B(1-601) (UniProt Q5T0F9 1-601)
T1 sequence (looked up): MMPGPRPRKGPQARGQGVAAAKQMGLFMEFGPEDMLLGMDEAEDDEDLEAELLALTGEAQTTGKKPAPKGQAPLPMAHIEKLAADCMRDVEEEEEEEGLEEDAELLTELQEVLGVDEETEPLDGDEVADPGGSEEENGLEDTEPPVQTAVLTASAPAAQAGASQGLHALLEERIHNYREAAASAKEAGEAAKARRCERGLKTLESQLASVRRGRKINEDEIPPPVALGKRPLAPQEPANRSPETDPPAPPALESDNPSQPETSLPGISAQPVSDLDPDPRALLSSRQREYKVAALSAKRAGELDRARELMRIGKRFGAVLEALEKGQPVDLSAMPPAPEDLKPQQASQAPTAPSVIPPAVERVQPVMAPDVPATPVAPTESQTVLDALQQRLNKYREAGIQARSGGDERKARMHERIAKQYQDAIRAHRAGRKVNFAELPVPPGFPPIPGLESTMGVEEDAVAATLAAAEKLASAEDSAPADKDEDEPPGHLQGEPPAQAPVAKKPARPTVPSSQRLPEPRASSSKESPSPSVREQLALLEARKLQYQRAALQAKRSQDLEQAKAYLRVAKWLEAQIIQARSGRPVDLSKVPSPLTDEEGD

T2: CHMP4B(23-97), MBP removed (UniProt Q9H444)
T2 sequence (Q9H444 23-97, species assumed, looked up): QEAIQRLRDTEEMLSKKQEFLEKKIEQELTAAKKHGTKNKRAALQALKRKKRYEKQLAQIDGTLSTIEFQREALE

T3: MBP-CHMP4B(23-97) (UniProt Q9H444 23-97)
T3 sequence (looked up): T2 sequence (Q9H444 23-97, species assumed, looked up)

B1: CC2D1A(346-494) (domain or fragment, human, UniProt Q6P1N0 346-494, looked up)
chain: RTLLEALEQRMERYQVAAAQAKSKGDQRKARMHERIVKQYQDAIRAHKAGRAVDVAELPVPPGFPPIQGLEATKPTQQSLVGVLETAMKLANQDEGPEDEEDEVPKKQNSPVAPTAQPKAPPSRTPQSGSAPTAKAPPKATSTRAQQQL
B2: CHMP4B(7-110), MBP removed (domain or fragment, UniProt Q9H444 7-110, looked up)
chain: LFGAGGGKAGKGGPTPQEAIQRLRDTEEMLSKKQEFLEKKIEQELTAAKKHGTKNKRAALQALKRKKRYEKQLAQIDGTLSTIEFQREALENANTNTEVLKNMG
B3: MBP-CHMP4B(7-110) (domain or fragment, UniProt Q9H444 7-110, looked up)
chain: B2 chain
B4: CC2D1A(346-455) (domain or fragment, human, UniProt Q6P1N0 346-455, looked up)
chain: RTLLEALEQRMERYQVAAAQAKSKGDQRKARMHERIVKQYQDAIRAHKAGRAVDVAELPVPPGFPPIQGLEATKPTQQSLVGVLETAMKLANQDEGPEDEEDEVPKKQNS
B5: CC2D1A(309-494) (domain or fragment, human, UniProt Q6P1N0 309-494, looked up)
chain: SCLPPPPDQLPPDPPSPPSQPPTPATAPSTTEVPPPPRTLLEALEQRMERYQVAAAQAKSKGDQRKARMHERIVKQYQDAIRAHKAGRAVDVAELPVPPGFPPIQGLEATKPTQQSLVGVLETAMKLANQDEGPEDEEDEVPKKQNSPVAPTAQPKAPPSRTPQSGSAPTAKAPPKATSTRAQQQL
B6: MBP-CHMP4B(7-105) (domain or fragment, UniProt Q9H444 7-105, looked up)
chain: LFGAGGGKAGKGGPTPQEAIQRLRDTEEMLSKKQEFLEKKIEQELTAAKKHGTKNKRAALQALKRKKRYEKQLAQIDGTLSTIEFQREALENANTNTEV
B7: MBP-CHMP4B(7-105)_(mut1) (domain or fragment, UniProt Q9H444 7-105, looked up)
chain: B6 chain with R22A, R24A, D25R, E27R

Columns and labels:
MBP-CHMP4B(7-110) = biological target: B3; experiment: ITC
CC2D1B(1-601) [1] = biological target: T1, CC2D1B(1-601); experiment: SEC-MALS
CC2D1B(1-601) [2] = biological target: T1, CC2D1B(1-601); experiment: ITC
[3] = biological target: T2, CHMP4B(23-97), MBP removed; experiment: SEC-MALS
MBP-CHMP4B(23-97) = biological target: T3, MBP-CHMP4B(23-97); experiment: ITC
CC2D1A(346-455) = biological target: B4; experiment: SPR

Binder: B1
dH (MBP-CHMP4B(7-110)): -8160 kcal/mol | stoichiometry N (MBP-CHMP4B(7-110)): 1.03

Binder: B2
stoichiometry N (CC2D1B(1-601) [1]): 1

Binder: B3
dH (CC2D1B(1-601) [2]): -13700 kcal/mol | stoichiometry N (CC2D1B(1-601) [2]): 1.02

Binder: B4
stoichiometry N [3]: 1 | dH (MBP-CHMP4B(23-97)): -14600 kcal/mol | stoichiometry N (MBP-CHMP4B(23-97)): 0.9 | dH (MBP-CHMP4B(7-110)): -8190 kcal/mol | stoichiometry N (MBP-CHMP4B(7-110)): 0.9

Binder: B5
dH (MBP-CHMP4B(7-110)): -7380 kcal/mol | stoichiometry N (MBP-CHMP4B(7-110)): 0.84

Binder: B6
koff (CC2D1A(346-455)): 0.0079 s⁻¹ | kon (CC2D1A(346-455)): 25000 M⁻¹ s⁻¹

Binder: B7
koff (CC2D1A(346-455)): 0.0017 s⁻¹ | kon (CC2D1A(346-455)): 1200 M⁻¹ s⁻¹
